Values joined by “and” are separate entries in the source; they are usually repeats but may differ in a detail not shown here. Identical values can stand only once.
B1: clusterin (natural protein, human)
chain 1: DQTVSDNELQEMSNQGSKYVNKEIQNAVNGVKQIKTLIEKTNEERKTLLSNLEEAKKKKEDALNETRESETKLKELPGVCNETMMALWEECKPCLKQTCMKFYARVCRSGSGLVGRQLEEFLNQSSPFYFWMNGDRIDSLLENDRQQTHMLDVMQDHFSRASSIIDELFQDRFFTREPQDTYHYLPFSLPHRRPHFFFPKSRIVR
chain 2: SLMPFSPYEPLNFHAMFQPFLEMIHEAQQAMDIHFHSPAFQHPPTEFIREGDDDRTVCREIRHNSTGCLRMKDQCDKCREILSVDCSTNNPSQAKLRRELDESLQVAERLTRKYNELLKSYQWKMLNTSSLLEQLNEQFNWVSRLANLTQGEDQYYLRVTTVASHTSDSDVPSGVTEVVVKLFDSDPITVTVPVEVSRKNPKFMETVAEKALQEYRKKHREE
modifications: highly glycosylated | highly glycosylated
notes: Secreted clusterin, about 80 kDa; multiple copies in sMAC; Not modelled in the deposited structures; the clusterin core model (residues 40-124 and 256-427) is a prediction; also called apolipoprotein J; source: bought: Complement Technologies (as part of purified sMAC)
B2: complement C9 (natural protein)
chain: not shown
modifications: N-linked glycan (NAG) on Asn394
notes: One to three copies stand in sMAC, in two conformations; also called C9_(1); C9_(2); source: bought: Complement Technologies (as part of purified sMAC)

Assays:
Conditions in all cases: both partners purified
complement C9 = biological target: B2; test: cross-linking; XL-MS of purified sMAC (0.5 mg/ml) with 1 mM DSS or 15 mM DMTMM, 30 min at RT, triplicates; LC-MS/MS, pLink
Sequence of complement C9 (P02748 22-559): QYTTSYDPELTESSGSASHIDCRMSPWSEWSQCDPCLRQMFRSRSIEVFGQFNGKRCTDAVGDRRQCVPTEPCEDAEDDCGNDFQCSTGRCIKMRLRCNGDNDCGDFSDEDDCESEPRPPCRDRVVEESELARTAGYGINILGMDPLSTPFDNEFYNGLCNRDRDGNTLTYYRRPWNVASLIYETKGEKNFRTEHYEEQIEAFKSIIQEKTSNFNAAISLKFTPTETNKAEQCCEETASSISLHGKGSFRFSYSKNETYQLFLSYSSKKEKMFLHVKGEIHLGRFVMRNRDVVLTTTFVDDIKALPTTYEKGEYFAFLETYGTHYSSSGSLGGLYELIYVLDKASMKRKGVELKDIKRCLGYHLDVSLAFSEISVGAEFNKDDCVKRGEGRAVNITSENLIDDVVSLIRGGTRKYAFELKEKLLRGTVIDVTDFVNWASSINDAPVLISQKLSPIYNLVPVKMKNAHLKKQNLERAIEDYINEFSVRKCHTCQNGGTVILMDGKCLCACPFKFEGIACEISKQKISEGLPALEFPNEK

[1] = biological target: T1, complement C8 (C8α/C8β/C8γ) (human, UniProt P07357 31-584; P07358 55-591; P07360 21-202); test: as above
T1 construct: complement component C8 alpha chain, human; complement component C8 beta chain, human; complement component C8 gamma chain, human; Kept as one molecule; source: bought: Complement Technologies (as part of purified sMAC); copies: 1 + 1 + 1
T1 sequence (P07357 31-584, chain 1 of 3): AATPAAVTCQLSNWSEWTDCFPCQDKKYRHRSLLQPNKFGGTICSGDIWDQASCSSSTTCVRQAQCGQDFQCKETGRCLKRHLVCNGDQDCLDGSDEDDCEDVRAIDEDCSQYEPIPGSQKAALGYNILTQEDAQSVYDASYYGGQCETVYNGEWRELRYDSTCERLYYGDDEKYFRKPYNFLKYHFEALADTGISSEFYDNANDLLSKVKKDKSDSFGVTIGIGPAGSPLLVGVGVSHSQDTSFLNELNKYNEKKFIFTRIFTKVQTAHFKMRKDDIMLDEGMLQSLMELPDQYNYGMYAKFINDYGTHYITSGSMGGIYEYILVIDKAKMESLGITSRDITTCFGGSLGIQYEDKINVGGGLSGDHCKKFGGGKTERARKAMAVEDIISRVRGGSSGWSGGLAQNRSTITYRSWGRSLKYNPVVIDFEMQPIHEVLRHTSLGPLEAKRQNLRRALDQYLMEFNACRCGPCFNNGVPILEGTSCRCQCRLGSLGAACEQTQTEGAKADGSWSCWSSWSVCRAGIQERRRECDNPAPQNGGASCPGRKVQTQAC
T1 sequence (P07358 55-591, chain 2 of 3): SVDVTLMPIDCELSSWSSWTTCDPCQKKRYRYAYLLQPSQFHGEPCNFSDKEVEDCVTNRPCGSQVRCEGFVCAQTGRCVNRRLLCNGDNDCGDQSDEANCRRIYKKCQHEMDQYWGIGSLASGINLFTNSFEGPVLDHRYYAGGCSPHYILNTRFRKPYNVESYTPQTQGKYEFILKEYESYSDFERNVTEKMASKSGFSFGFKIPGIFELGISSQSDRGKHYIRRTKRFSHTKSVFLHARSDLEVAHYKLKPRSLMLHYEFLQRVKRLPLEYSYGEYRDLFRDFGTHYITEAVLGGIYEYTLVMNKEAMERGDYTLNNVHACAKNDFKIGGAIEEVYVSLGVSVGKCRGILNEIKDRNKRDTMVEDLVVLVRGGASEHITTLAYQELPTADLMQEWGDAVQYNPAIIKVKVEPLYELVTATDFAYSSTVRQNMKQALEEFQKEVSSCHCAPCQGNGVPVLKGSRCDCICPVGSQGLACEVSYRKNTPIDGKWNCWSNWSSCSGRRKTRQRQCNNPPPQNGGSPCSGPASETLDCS
T1 sequence (P07360 21-202, chain 3 of 3): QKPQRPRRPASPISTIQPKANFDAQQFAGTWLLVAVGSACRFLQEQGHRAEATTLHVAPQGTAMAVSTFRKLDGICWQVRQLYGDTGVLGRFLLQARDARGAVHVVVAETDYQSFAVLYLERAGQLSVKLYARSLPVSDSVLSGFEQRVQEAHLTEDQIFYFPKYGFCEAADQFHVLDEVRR

[2] = biological target: T1, complement C8 (C8α/C8β/C8γ); test: cryo-EM structure; purified sMAC (Complement Technologies) at 0.065 mg/ml in 120 mM NaCl, 10 mM Hepes pH7.4; 3D classes with 1, 2 or 3 C9; focused refinements after density subtraction

Binder	binding result (complement C9)	binding result [1]	stoichiometry N [2]
B1	binds	binds	–
B2	–	–	1 copies and 3 copies
